Source: PMC3995750, “Improved production of recombinant human Fas ligand extracellular domain in Pichia pastoris: yield enhancement using disposable culture-bag and its application to site-specific chemical modifications” (BMC Biotechnology, 2014)
One block for each binder: values may come before it.

Assays:
[1] = molecular target: T1, wild-type human Fas receptor extracellular domain fused to human IgG1-Fc domain with a thrombin cleavage site … (human, UniProt P25445 26-173); test: co-IP; receptor-mediated ligand immunoprecipitation: purified hFasLECD sample with hFasRECD-T-Fc protein and Protein A-agarose beads (immunoprecipitation kit, Roche); precipitate analysed by SDS-PAGE; settings: both partners purified
T1 construct: human Fas receptor, extracellular domain; A thrombin cleavage site lies between the receptor part and the Fc; also called wild-type hFasRECD-T-Fc; hFasRECD-T-Fc
T1 sequence (looked up): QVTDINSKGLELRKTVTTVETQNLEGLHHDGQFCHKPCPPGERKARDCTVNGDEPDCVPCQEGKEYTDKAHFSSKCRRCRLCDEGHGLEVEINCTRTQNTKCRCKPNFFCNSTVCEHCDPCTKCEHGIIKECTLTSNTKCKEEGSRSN

[2] = molecular target: the molecule itself; test: SDS-PAGE with and without 2-mercaptoethanol; partially purified NFG1CG4-hFasLECD (main peak of the 1st cation-exchange chromatography, concentrated) in sample buffer with or without 2-mercaptoethanol; inter-subunit disulfide bond

binding result [1]: binds
B1: tag-free human Fas ligand extracellular domain (139-281, N184Q, N250Q), N-glycan untrimmed (domain or fragment, UniProt P48023 139-281, looked up)
chain: EKKELRKVAHLTGKSNSRSMPLEWEDTYGIVLLSGVKYKKGGLVIQETGLYFVYSKVYFRGQSCNNLPLSHKVYMRNSKYPQDLVMMEGKMMSYCTTGQMWARSSYLGAVFQLTSADHLYVNVSELSLVNFEESQTFFGLYKL
modifications: remaining N-glycans, untrimmed
notes: human Fas ligand (281 aa), extracellular domain with residues 103-138 deleted, i.e. residues 139-281, with N184Q and N250Q; Secreted with the S. cerevisiae alpha-factor prepro signal; also called tag-free hFasLECD; N-glycan untrimmed tag-free hFasLECD; source: Pichia pastoris GS115 (Mut+), secreted, purified (two rounds of cation-exchange chromatography)

binding result [1]: binds
B2: NFG1CG4-hFasLECD cross-linked with SUNBRIGHT DE-100MA, peak II of the size-exclusion chromatography (domain or fragment, human, UniProt P48023 139-281, looked up)
chain: B1 chain
modifications: cysteine in the N-terminal tag conjugated with SUNBRIGHT DE-100MA (linear polyethylene glycol of about 10 kDa with a maleimide group at either end): two subunits cross-linked by one molecule, or one subunit conjugated with one molecule; unreacted cysteines capped with N-Ethylmaleimide
notes: human Fas ligand (281 aa), residues 139-281 with N184Q and N250Q; not shown: FLAG-GlyCys(Gly)4, N-terminal, kept

binding result [1]: binds
B3: NFG1CG4-hFasLECD cross-linked with SUNBRIGHT DE-100MA, peak III of the size-exclusion chromatography (domain or fragment, human, UniProt P48023 139-281, looked up)
chain: B1 chain
modifications: cysteine in the N-terminal tag conjugated with SUNBRIGHT DE-100MA (linear polyethylene glycol of about 10 kDa with a maleimide group at either end): two subunits cross-linked by one molecule, or one subunit conjugated with one molecule; unreacted cysteines capped with N-Ethylmaleimide
notes: as for B2

binding result [1]: binds
B4: SUNBRIGHT ME-050MA conjugated NFG1CG4-hFasLECD (domain or fragment, human, UniProt P48023 139-281, looked up)
chain: B1 chain
modifications: cysteine in the N-terminal tag conjugated with SUNBRIGHT ME-050MA (linear methoxy polyethylene glycol of about 5 kDa with one maleimide group); a small fraction of subunits not conjugated
notes: human Fas ligand (281 aa), residues 139-281 with N184Q and N250Q; also called SUNBRIGHT ME-050MA adduct of NFG1CG4-hFasLECD; not shown: FLAG-GlyCys(Gly)4, N-terminal, kept

binding result [1]: binds
B5: N-terminal FLAG-(Gly)5 tagged human Fas ligand extracellular domain (aa 139-281, N184Q, N250Q) (domain or fragment, UniProt P48023 139-281, looked up)
chain: B1 chain
notes: human Fas ligand (281 aa), residues 139-281 with N184Q and N250Q; Positive control of the co-immunoprecipitation; also called NFG5-hFasLECD; not shown: FLAG-(Gly)5, N-terminal, kept

binding result [1]: binds
B6: N-Ethylmaleimide conjugated NFG1CG4-hFasLECD (domain or fragment, human, UniProt P48023 139-281, looked up)
chain: B1 chain
modifications: cysteine in the N-terminal tag conjugated with N-Ethylmaleimide
notes: human Fas ligand (281 aa), residues 139-281 with N184Q and N250Q; also called N-Ethylmaleimide adduct of NFG1CG4-hFasLECD; not shown: FLAG-GlyCys(Gly)4, N-terminal, kept

B7: NFG1CG4-tagged human Fas ligand extracellular domain (139-281, N184Q, N250Q), not conjugated (domain or fragment, UniProt P48023 139-281, looked up)
chain: B1 chain
modifications: cysteine in the N-terminal tag, partly in a possible inter-subunit disulfide bond
notes: human Fas ligand (281 aa), residues 139-281 with N184Q and N250Q; Made from the NFG5-hFasLECD gene by an insertion mutation that adds a cysteine in the (Gly)5 region of the tag; also called NFG1CG4-hFasLECD; source: Pichia pastoris GS115 (Mut+), secreted; 40-fold concentrated culture supernatant; partially purified by cation-exchange chromatography; not shown: FLAG-GlyCys(Gly)4, N-terminal, kept
binding result [2]: binds

binding result [1]: binds
B8: N-glycan trimmed tag-free human Fas ligand extracellular domain (139-281, N184Q, N250Q) (domain or fragment, UniProt P48023 139-281, looked up)
chain: B1 chain
modifications: N-glycans trimmed with Endo Hf
notes: human Fas ligand (281 aa), residues 139-281 with N184Q and N250Q; Same chain as m1 after Endo Hf digestion; also called N-glycan trimmed tag-free hFasLECD; source: Pichia pastoris GS115 (Mut+), secreted, purified; digested with Endo Hf, Con A-agarose flow-through, Mono S cation-exchange
